Data published in paper PMC11633749, “Identification of the Wnt signal peptide that directs secretion on extracellular vesicles” (Science Advances, 2024).
Blank lines part the entries; values can stand above or below the binder they belong to.

How the values were obtained:
[1] = molecular target: T1, COPB2_(1–304), N-terminal WD repeat of COPB2 (S. cerevisiae, UniProt P41811 1-304); experiment: ITC; 450 μM of each peptide titrated into 20 μM COPB2 1-304; 25°C; 150 mM NaCl, 0.5 mM TCEP, 25 mM Hepes pH 7.5; one-site model; settings: both partners purified
T1 construct: COPB2 (coatomer beta'), residues 1-304, N-terminal WD repeat domain; residues are counted in 'Saccharomyces cerevisiae COPB2 numbering'; PDB 2YNN (COPB2 1-304) served as search model; codon-optimised synthetic gene; also called WD-repeat domain of COPB2; source: E. coli BL21(DE3), purified (Ni-NTA, tag cleavage, ion exchange, SEC); not shown: 6xHis-Sumo3, N-terminal, cleaved
T1 sequence (looked up): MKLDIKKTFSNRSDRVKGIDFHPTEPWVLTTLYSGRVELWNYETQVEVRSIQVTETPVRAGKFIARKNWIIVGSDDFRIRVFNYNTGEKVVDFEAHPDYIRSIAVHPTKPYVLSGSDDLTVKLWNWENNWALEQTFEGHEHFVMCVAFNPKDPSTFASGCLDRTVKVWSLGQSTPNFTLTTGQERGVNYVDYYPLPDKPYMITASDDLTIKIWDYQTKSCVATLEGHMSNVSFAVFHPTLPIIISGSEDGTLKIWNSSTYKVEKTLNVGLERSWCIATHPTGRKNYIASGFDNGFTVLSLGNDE

[2] = molecular target: T2, COPB2_(1–304), N-terminal WD repeat of COPB2 (S. cerevisiae, UniProt P41811 1-304); experiment: ITC
T2 chain: T1 sequence (looked up)

- Kd [1]: 37.2 µM
B1: Wnt_(252–257) peptide (LKIKKP) (peptide)
peptide: LKIKKP
notes: also called C-terminal half of the polypeptide

- Kd [2]: 6 µM
Binder: PVRASRNKRPTFLKIKAP [EBP peptide K256A]

- Kd [1]: 11.6 µM
B2: exosome-binding peptide (EBP), 18-amino acid polypeptide of Wnt7a (240-257) (peptide)
peptide: PVRASRNKRPTFLKIKKP
notes: also called 18–amino acid EBP polypeptide

- Kd [2]: 47.2 µM
Binder: PVRASRNKRPTFLAIKKP [EBP peptide K253A]
